Legend:
SKMES1 cells = assay: PD-L1 mRNA one step RT-qPCR, IFNγ treatment; format: cell-based, human; settings: 10 ng/mL IFNγ for 24h, normalized by GAPDH
Protocol: Additionally, the presence, abundance and ratio of different PD-L1 mRNA forms can be used to predict response. As way of example, PD-L1 mRNA were measured using primers amplifying within exon 3-4 (extracellular region of the transcribed protein that interacts with PD1). Other amplicons detecting the same or other forms can be used readily. For example, amplicons corresponding to the transmembrane and cytoplasmic tail to confirm full length plasma membrane bound protein is transcribed, or regions overlapping with either PD1 or anti-PD-L1 binding sites. Five cell lines (H460, H1299, H1650, H2126 and SKMES1) were treated with vehicle or 10 ng/mL IFNγ for 24h. More complex sample types, including cells isolated from solid tumors from preclinical and clinical cancers be used. Other time points, including those as early as 1h for IRF or 4h for PD-L1, can be readily used. RNA was isolated from the cells using an NEB kit (Cat #T2010) per the manufacturer's instructions. Isolated RNA was estimated using a NanoDrop […] and checked for its quality by checking the 260/280 ratio. RNA concentration was brought to 40 ng/uL in all the samples to take equal quantity for further steps of RT and real time PCR. One step RT-qPCR was performed using a Power SYBR Green RNA to Ct One step kit (Cat #4931198) as per the manufacturer's instructions. A 200 ng RNA template was taken for total 20 uL reaction per well in 96 well PCR microplate for Roche 480 Light cycler. The following primer pairs (Sigma) were used for PD-L1 and GAPDH and were used at a concentration in the reaction mixture of 400 nM:
A Roche 480 Light cycler was used for performing the one step real time PCR. Data was analyzed using 2^-ΔΔCt method normalized by GAPDH for relative levels. Alternative housekeeper genes may be readily used.

H1650 cells = assay: PD-L1 immunocytochemistry (ICC), IFNγ modulation; format: cell-based; settings: H1650 (NSCLC); 10 ng/mL human IFNγ, 24h; anti-PD-L1 clone E1L3N
Protocol: The human NSCLC cell line SKMES1 was grown in Eagle's Minimum Essential Medium (EMEM; ATCC #30-2003) with 10% Fetal Bovine Serum (FBS) and 1% Penicillin and Streptomycin (P/S). The human NSCLC H460, H1299 and H292 and melanoma cell lines MeWo, HMVII, A375 and CHL1 were grown in RPMI1640 medium with 10% FBS and 1% P/S and 1% sodium pyruvate. Cultured cells were harvested using Accutase, and the cell count and viability were determined using trypan blue dye exclusion. Other methods to collect cells, including scraping or other release can be used.
Between 15,000 to 20,000 cells were put into each chamber of 8-chambered ICC slides in 200 uL medium with or without 10 ng/mL human IFNγ. […] IFNγ can be readily replaced by other modulators discussed within. […] Cell lines can be readily switched for other sources of cells, including those isolated from xenografts or clinical samples and can be processed manually or using automated methods (e.g. on SnapPath).
Cells on the chambered slides were stained entirely at RT using the BioGenex RTU Detection System kit components (QD400) unless otherwise indicated. Other detection reagents and methods (e.g. multiplex immunocytochemistry, single of multiplex immunofluorescence, confocal, etc.), including automated staining methods, can be used readily. […] Ki67, T-EGFR or vimentin are provided as examples of positive controls, but others can be readily used. […]

B1: IFNγ: human IFNγ, modulator (10 ng/ml; Sigma Aldrich) (protein, UniProt P01579 24-161, looked up)
Interferon gamma: QDPYVKEAENLKKYFNAGHSDVADNGTLFLGILKNWKEESDRKIMQSQIVSFYFKLFKNFKDDQSIQKSVETIKEDMNVKFFNSNKKKRDDFEKLTNYSVTDLNVQRKAIHELIQVMAELSPAAKTGKRKRSQMLFRG
In the case of B1, the “change of PD-L1 mRNA upon IFNγ exposure” value (SKMES1 cells) is reported as “no change” and the “Immunocytochemical Score, PD-L1, IFNγ-Treated Cells” value (H1650 cells) is reported as “Negative”.

Reference: patent publication US20220347267A1, “METHODS TO IMPROVE PATIENT RESPONSE TO IMMUNE CHECKPOINT INHIBITORS AND FUNCTIONAL TESTS TO PREDICT RESPONSE” (Biomarker Strategies, LLC, priority 2019, published 2022)
